These results are taken from patent US20050053918A1, “Method of identifying peptides capable of binding to MHC molecules, peptides identified thereby and their uses” (priority 2001, published 2005).

For assay [1], the system named is T1, HLA-A2.1.
T1 construct: expressed in transfected cells; host or cells: RMA-S-HHD (murine TAP-2 deficient lymphoma, C57BL/6 origin)
Nature of the assay: Stabilization of cell surface HLA-A2.1 by peptide binding on RMA-S-HHD cells (FACS). The assay is classed as cell-based, human. Particulars: 100 μM peptide, 2 h 26° C. + 2 h 37° C., FACS with W6/32 mAb. On the procedure:
Synthetic peptides were added to […] RMA-S-HHD cells to a concentration of […] followed by incubation for two hours at 26° C. and two hours at 37° C. […] The HLA-A2.1 peptide derived from gp100 served as a positive control and unloaded RMA-S-HHD cells as a negative control.
RMA-S-HHD cells were washed three times with PBS followed by incubation overnight in FCS-free IMDM medium at 26° C. Synthetic peptides were added to 10^6 cells at a concentration of 100 μM. The cells were incubated for two hours at 26° C. followed by two hours at 37° C. […] (Sigma).
Another approach to ascertain that the identified peptides were indeed MHC bound peptide antigens, their capacity to bind tightly and stabilize cell surface HLA-A2.1 was tested by reconstitution into empty MHC on the surface of RMA-S-HHD cells.

Assay [2] concerns the target soluble HLA-A2 (Homo sapiens, UniProt P04439, D140Y/D185E/D98H/E176V/E277Q/G131W/G231S/I119V/I121R/I166T/I218V/N151K/N90K/P208A/P217A/Q86G/Q94H/R138H/R169H). The assay is described as follows: Appearance of peptides recovered from soluble HLA-A2 of cancer cell lines (ESI-MS/MS). Particulars: MCF-7, MDA-231, PC3, UCI-107. The text has this: Cell lines were co-transfected with plasmid HLA-A2/Q10^b and with phβ2m, which conferred resistance to the antibiotic G418 or transfected only with the plasmids sHLA-A2, sHLA-B7 and sHLA-Cw4 that contained the antibiotic resistance. Cells were electroporated by use of a Gene Pulser (Bio-Rad) set at […] 960 μF. Transfected cell clones were selected in G418 antibiotic and screened for those secreting sMHC to the growth medium. […] Color was developed with ABTS (Sigma) catalyzed by streptavidin peroxidase (Sigma).
Cultured cells, expressing the soluble MHC were grown to confluency in 150 mm plates. The culture medium was collected and residual cells were removed by centrifugation. […] The antibodies were coupled to NHS-activated agarose (Pharmacia) or to protein A Sepharose (Sigma) with n-methylpipelimidate (Sigma). The columns were washed with 0.5 M NaCl, 20 mM, Tris pH 8. The MHC molecules were eluted from the column with 0.1 M acetic acid at pH 3. Peptides were separated from the MHC complexes by boiling for five minutes in 10% acetic acid followed by ultra-filtration through a 3 kDa Microcon (Amincon).
The MHC bound peptides were resolved by reverse-phase HPLC on a 0.1 ID fused silica capillaries with length of about 30 cm (J&W) slurry packed with POROS 10 R2 (PerSepetive Biosystems). The capillaries were fitted with electrospray needle made from 36-gauge stainless tubing (Small Parts Inc. Miami Lakes, Fla.). A Rheodyne 9125 HPLC injector fitted with a 20 μl loop was used for loading the column. The peptides were resolved by a relatively long (90 minutes) linear gradient of 5 to 50% acetonitrile with 0.1% acetic acid, at a flow rate of about 1 μl/minute. The flow was electrosprayed directly from the HPLC column into an ion trap mass spectrometer (LCQ, Finnigan). The mass spectrometry analysis was done in the positive ion mode, using repetitively a full MS scan usually between 450 to 1500 atomic mass units (amu) followed by collision-induced decomposition (CID) of the dominant ion selected from the previous MS scan. In some cases the full MS was performed with a narrower mass range to reduce the number of detected peptides. The peptides were identified by comparing their MS and CID data to the calculated MS and CID of the proteins in the Genpept databank (www.ncbi.nlm.nih.gov/genpept) using the Sequest software (obtained from Finnigan, San Jose, Calif.). The number of times each peptide was fragmented by CID was usually limited to two by dynamic exclusion, a feature of the Xcalibur control software the LCQ mass spectrometer (Finnigan).

In assay [3] the test system is EL4-HHD cells loaded with the synthetic peptides. The assay is described as follows: Cytotoxic T lymphocytes assay after immunization of HHD transgenic mice. The assay is classed as in vivo. Particulars: compared to negative control peptide ALLCAPSLL; effector-to-target ratio 50:1 shown. The text has this:
Cells were loaded separately with individual peptides, washed and injected in four groups: 1-p1028 (SEQ ID NO:13) alone, 2-p1258 (SEQ ID NO:24) alone, 3—pool of peptides: p913 (SEQ ID NO:5), p958 (SEQ ID NO:9), p989 of CD59 (SEQ ID NO:11) and p989 of FLI (SEQ ID NO:12), 4—peptides p1031 (SEQ ID NO:14), p1121 (SEQ ID NO:22) and p1068 (SEQ ID NO:16). Unloaded EL4-HHD or targets cells not loaded with the peptides were used as negative controls. An effector-to-target ratio of 50:1 is shown.
Transgenic mice expressing a single chain HLA-A2.1/Db-β2m which are double knockout for H-2 Db and for β2m (HHD mice) were immunized four times intra-peritoneally at 7-day interval with 2×10^6 irradiated (5,000 rad) RMA-S-HHD-B7.1 cells loaded for two hours at 26° C. followed by two hours at 37° C. with 100 μM of the synthetic peptides. Ten days after the last immunization the spleens were removed from the vaccinated mice. Splenocytes were re-stimulated with 100 μM of synthetic peptides for five days. Viable lymphocytes were separated by lympholyte-M (Cadarlane, Homby, Canada) and resuspended in RPMI-HEPES. Cytotoxic activity was measured as in [26] by admixing the lymphocytes at different ratios with 5×10^3 EL4-HHD cells grown in medium containing ^35S methionine and then loaded with the synthetic peptides.
To further evaluate the affinity of the peptides to the HLA-A2 and to obtain some insight into their immunogenic potential, selected peptides were tested for their ability to induce an immune response in HLA-A2 transgenic mice. It was assumed that only peptides that could be effectively presented and remain tightly bound to the cells would be capable of inducing an immune response in these mice. The same synthetic peptides that were used for the FACS analysis were used for immunization of the HHD transgenic mice, which express the human HLA-A2.1/Db-β2m single chain. To immunize the mice, the HHD culture cells were loaded with the different peptides and then injected to the HHD mice. The immune response in the mice was followed by the appearance of CTLs specific for these peptides. Some of the peptides were indeed capable of inducing an immune response, which both authenticate them as MHC bound peptides and gives an indication about their immunogenic potential.

Assay [4] addresses T2, sHLA-A2 (human).
T2 construct: also called sA2; sMHC-A2
Nature of the assay: sMHC eluate MS, UCI-101.

“GVYDGEEHSV [from MAGE XP-2 protein (MAGE-B2)]”: the “binding affinity to MHC by reconstitution and stabilization of empty MHC on the surface of RMA-S-HHD cells” value in assay [1] was “normal”. Besides, the “appearance of peptide in soluble HLA-A2 from cell lines of different tissue origin” value (“appearance … of different tissue origin” for short) in assay [2] was “detected only in the ovarian cancer cells (UCI-107)”.

For “SLIGHLQTL [from protein tyrosine posphatase]”, the “appearance … of different tissue origin” value in assay [2] is given as “detected only in the breast cancer cell MDA-231”.

Turning to ALSDHHIYL [from aldolase A], the “lysis of EL4-HHD cells loaded with the peptides by CTLs of immunized HHD mice” value (from here on “lysis of EL4-HHD cells loaded”) in assay [3] is “significant lysis”.

Consider NLTISDVSV [from MUC1], for which the “appearance … of different tissue origin” value in assay [2] is “recovered only from MCF-7 grown without estrogen”.

Take TLWVDPYEV [from BTG2]: the “lysis of EL4-HHD cells loaded” value in assay [3] is on record as “significant lysis”.

As to “SLLGGDVVSV [from TSC-22 related protein]”, the “appearance … of different tissue origin” value in assay [2] was “detected at high level in the two-breast cancer cells (MCF-7 and MDA-231), but was not observed in the ovarian (UCI-107) and the prostate (PC3) cancer cells”.

Take “GLIEKNIEL [from DNA (cytosine-5-)-methyltransferase]”: in assay [3], the “lysis of EL4-HHD cells loaded” value is “significant lysis”.

For the molecule FLFDGSPTYVL [from fatty acid synthase], the “lysis of EL4-HHD cells loaded” value in assay [3] was “significant lysis”.

Turning to ALFGALFLA, the “appearance … of different tissue origin” value in assay [2] was “recovered only from PC3 cells”.

B1: YLLPAIVHI (peptide)
peptide: YLLPAIVHI
Regarding B1, the binding result in assay [4] is given as “binds”.

B2: FLFDGSPTYVL (peptide)
peptide: FLFDGSPTYVL
notes: also called p1258
In the case of B2, the binding result in assay [4] was “binds”.

B3: SLFPGKLEV (peptide)
peptide: SLFPGKLEV
notes: also called p989 of FLI
For the molecule B3, the binding result in assay [4] is “binds”.

B4: ILDKKVEKV (peptide)
peptide: ILDKKVEKV
As to B4, the binding result in assay [4] is reported as “binds”.

B5: SLSEKTVLL (peptide)
peptide: SLSEKTVLL
notes: also called p989 of CD59
For the molecule B5, in assay [4], the binding result is “binds”.

B6: LLLDVPTAAV (peptide)
peptide: LLLDVPTAAV
notes: also called p1011
On to B6, for which, in assay [4], the binding result is listed as “binds”.

B7: GLLGTLVQL (peptide)
peptide: GLLGTLVQL
notes: also called p913
In the case of B7, the binding result in assay [4] was “binds”.

B8: SLLPPTALVGL (peptide)
peptide: SLLPPTALVGL
notes: also called p1080
For B8, the binding result in assay [4] was “binds”.

B9: SLLPPDALVGL (peptide)
peptide: SLLPPDALVGL
notes: also called p1094
For the molecule B9, the binding result in assay [4] is given as “binds”.

B10: GLYPGLIWL (peptide)
peptide: GLYPGLIWL
notes: also called p1031
Consider B10, for which the binding result in assay [4] is listed as “binds”.

B11: LLDVPTAAV (peptide)
peptide: LLDVPTAAV
notes: also called p898
Consider B11, for which the binding result in assay [4] is recorded as “binds”.

B12: ALSDHHIYL (peptide)
peptide: ALSDHHIYL
notes: also called p1068
With B12, the binding result in assay [4] is recorded as “binds”.

B13: GLIEKNIEL (peptide)
peptide: GLIEKNIEL
notes: also called p1028
As for B13, the binding result in assay [4] was “binds”.

B14: SLWGQPAEA (peptide)
peptide: SLWGQPAEA
notes: also called p958
As for B14, the binding result in assay [4] is “binds”.

B15: LLLDVPTAAVQA (peptide)
peptide: LLLDVPTAAVQA
notes: also called p1210; p11210
On to B15, for which the binding result in assay [4] is “binds”.
